Values quoted from earlier work, collected in patent US7850723B1, “Method and apparatus for patient temperature control employing titration of therapy using EEG signals” (Innercool Therapies, Inc., priority 2005, dated 2010).

What was measured:
[1] = target: plasmin (Homo sapiens, UniProt P00747)
[2] = tested on: clots; settings: tPA 0.3, 1.0 and 3.0 μg/ml; incubated at 24° C. to 40° C.
[3] = tested on: clots; settings: clots treated with 2.5 μg/ml tPA; incubated at 37, 25, 10, 0 and −8° C.

plasmin, sequence (P00747 581-810 limits assumed, species assumed): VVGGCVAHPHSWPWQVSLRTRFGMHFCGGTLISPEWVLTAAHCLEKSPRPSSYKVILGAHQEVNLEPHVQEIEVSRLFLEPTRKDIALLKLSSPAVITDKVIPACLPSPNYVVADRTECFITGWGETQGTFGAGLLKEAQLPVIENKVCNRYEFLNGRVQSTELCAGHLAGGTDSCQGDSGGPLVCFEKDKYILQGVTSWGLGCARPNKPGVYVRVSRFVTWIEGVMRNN
plasmin, sequence (P00747 97-580 partner limits assumed, species assumed): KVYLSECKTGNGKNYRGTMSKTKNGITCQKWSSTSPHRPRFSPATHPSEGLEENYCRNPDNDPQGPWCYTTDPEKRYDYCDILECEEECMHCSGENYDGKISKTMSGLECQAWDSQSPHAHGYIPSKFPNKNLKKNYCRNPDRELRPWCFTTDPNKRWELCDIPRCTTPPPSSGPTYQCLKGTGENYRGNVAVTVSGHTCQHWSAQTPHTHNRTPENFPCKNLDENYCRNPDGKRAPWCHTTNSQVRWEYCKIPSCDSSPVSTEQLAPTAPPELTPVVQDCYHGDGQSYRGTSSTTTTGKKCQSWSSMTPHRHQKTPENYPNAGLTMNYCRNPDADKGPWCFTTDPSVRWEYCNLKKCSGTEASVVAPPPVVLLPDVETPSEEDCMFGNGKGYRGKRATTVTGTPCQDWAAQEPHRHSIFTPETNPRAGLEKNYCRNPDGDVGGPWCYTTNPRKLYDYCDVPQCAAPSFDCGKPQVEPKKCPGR

B1: α2-antiplasmin (protein, UniProt P08697 40-491, looked up)
Alpha-2-antiplasmin: NQEQVSPLTLLKLGNQEPGGQTALKSPPGVCSRDPTPEQTHRLARAMMAFTADLFSLVAQTSTCPNLILSPLSVALALSHLALGAQNHTLQRLQQVLHAGSGPCLPHLLSRLCQDLGPGAFRLAARMYLQKGFPIKEDFLEQSEQLFGAKPVSLTGKQEDDLANINQWVKEATEGKIQEFLSGLPEDTVLLLLNAIHFQGFWRNKFDPSLTQRDSFHLDEQFTVPVEMMQARTYPLRWFLLEQPEIQVAHFPFKNNMSFVVLVPTHFEWNVSQVLANLSWDTLHPPLVWERPTKVRLPKLYLKHQMDLVATLSQLGLQELFQAPDLRGISEQSLVVSGVQHQSTLELSEVGVEAAAATSIAMSRMSLSSFSVNRPFLFFIFEDTTGLPLFVGSVRNPNPSAPRELKEQQDSPGNKDFLQSLKGFPRGDKLFGPDLKLVPPMEEDYPQFGSPK
In the case of B1, the “time required to inactivate plasmin bound to a fibrin surface” value [1] is listed as “about 10 seconds”.

B2: tissue plasminogen activator (protein, UniProt P00750 36-562, looked up)
Tissue-type plasminogen …: SYQVICRDEKTQMIYQQHQSWLRPVLRSNRVEYCWCNSGRAQCHSVPVKSCSEPRCFNGGTCQQALYFSDFVCQCPEGFAGKCCEIDTRATCYEDQGISYRGTWSTAESGAECTNWNSSALAQKPYSGRRPDAIRLGLGNHNYCRNPDRDSKPWCYVFKAGKYSSEFCSTPACSEGNSDCYFGNGSAYRGTHSLTESGASCLPWNSMILIGKVYTAQNPSAQALGLGKHNYCRNPDGDAKPWCHVLKNRRLTWEYCDVPSCSTCGLRQYSQPQFRIKGGLFADIASHPWQAAIFAKHRRSPGERFLCGGILISSCWILSAAHCFQERFPPHHLTVILGRTYRVVPGEEEQKFEVEKYIVHKEFDDDTYDNDIALLQLKSDSSRCAQESSVVRTVCLPPADLQLPDWTECELSGYGKHEALSPFYSERLKEAHVRLYPSSRCTSQHLLNRTVTDNMLCAGDTRSGGPQANLHDACQGDSGGPLVCLNDGRMTLVGIISWGLGCGQKDVPGVYTKVTNYLDWIRDNMRP
In the case of B2, the “amount of clot lysis” value [2] is given as “the amount of clot lysis at lower temperatures was less than that at higher temperatures” and the plasminogen activation [3] is given as “relatively high at low temperatures”.
